Experimental data: patent US20210024604A1, “NOVEL INSULIN DERIVATIVES” (Novo Nordisk A/S, priority 2009, published 2021)

Tests used:
human serum albumin = biological target: T1, human serum albumin (Homo sapiens, UniProt P02768); experiment: Elution from immobilized human serum albumin column; shift in retention time with glucose in eluent; assay type: binding; conditions: retention time with no glucose vs 50 mM glucose in eluent, HSA column
T1 construct: purchased Chromtech Inc HSA 50.3 column
Procedure: The glucose sensitivity of insulin albumin binding can be determined by tuning glucose levels in the elution buffer and determine the shift in retention time as a function of the glucose concentration, table 1 below.
T 37° C., flow 0.7 mL/min, 20 uL of 10 uM samples, UV monitor 220 nm.
Compounds marked with an asterix were eluted with a gradient to 70% buffer B.

[1] = rat, in vivo, iv
Procedure: 30 male, fed Wistar rats (250 g) and 30 male, fed ZDF rats (350 g, 12 weeks old) were anesthetized using Hypnorm-Dormicum (0.081 mg/ml fentanyl citrate (VetaPharma Ltd.), 1.25 mg/ml Midazolam (Roche)) 2 ml/kg as a priming dose and additional 1 ml/kg to timepoint −5 min prior to test substance dosing, and then 1 ml/kg every 45 minutes (4 times).
Both the Wistar rats and the ZDF rats were allocated into 5 groups, 6 rats in each (eg 10 groups in total). […] Two doses of each analogue were tested: 1.2 nmol/kg or 3.6 nmol/kg in Wistar rats, and 3.6 nmol/kg or 7.2 nmol/kg in ZDF rats. Blood samples of 100 μl (tail tip capillary puncture) for determination of plasma insulin were collected in microvette tubes at time 3, 15, 30, 60, 120, 180 and 240 minutes after insulin dosing.

[2] = pH 7.4, 37° C., gradient to 50% buffer B

Substance | Δ Rt (human serum albumin; [2]) [min] | Δ Rt (human serum albumin; marked *: eluted with a gradient to 70% buffer B) [min] | elimination compared with insulin of example 24 [1]
B29N^ε-16-(2,3-Difluoro-4-boronobenzoylamino)hexadecanoyl-γ-L-glutamyl desB30 Human Insulin [Example 4] | 1.8 | – | –
B29M-{4-[16-(3-Boronobenzenesulfonylamino)hexadecanoylsulfamoyl]butanoyl} desB30 Human Insulin [Example 14] | 0.8 | – | –
A22M-15-(3,5-Diboronobenzoylamino)pentadecanoyl B29M-15-(3,5-diboronobenzoylamino)pentadecandioyl A22K desB30 Human Insulin [Example 16] | – | 0.7 | –
B29N^ε-16-(2,3-Difluoro-4-boronobenzoylamino)hexadecanoyl desB30 Human Insulin [Example 6] | 2.8 | – | –
B29N^ε-16-(2,6-Difluoro-4-boronobenzoylamino)hexadecanonyl desB30 Human Insulin [Example 9] | 2.5 | – | –
B29N^ε-16-(2,3-Difluoro-4-boronobenzoylamino)hexadecanoyl A14E B25H des B30 Human Insulin [Example 22] | 1.5 | – | eliminated faster
